From IntAct's records for PubMed 16513117

B1: Protein phosphatase Slingshot homolog 1 (Homo sapiens), Q8WYL5 (parent)
chain: MALVTLQRSPTPSAASSSASNSELEAGSEEDRKLNLSLSESFFMVKGAALFLQQGSSPQGQRSLQHPHKHAGDLPQHLQVMINLLRCEDRIKLAVRLESAWADRVRYMVVVYSSGRQDTEENILLGVDFSSKESKSCTIGMVLRLWSDTKIHLDGDGGFSVSTAGRMHIFKPVSVQAMWSALQVLHKACEVARRHNYFPGGVALIWATYYESCISSEQSCINEWNAMQDLESTRPDSPALFVDKPTEGERTERLIKAKLRSIMMSQDLENVTSKEIRNELEKQMNCNLKELKEFIDNEMLLILGQMDKPSLIFDHLYLGSEWNASNLEELQGSGVDYILNVTREIDNFFPGLFAYHNIRVYDEETTDLLAHWNEAYHFINKAKRNHSKCLVHCKMGVSRSASTVIAYAMKEFGWPLEKAYNYVKQKRSITRPNAGFMRQLSEYEGILDASKQRHNKLWRQQTDSSLQQPVDDPAGPGDFLPETPDGTPESQLPFLDDAAQPGLGPPLPCCFRRLSDPLLPSPEDETGSLVHLEDPEREALLEEAAPPAEVHRPARQPQQGSGLCEKDVKKKLEFGSPKGRSGSLLQVEETEREEGLGAGRWGQLPTQLDQNLLNSENLNNNSKRSCPNGMEDDAIFGILNKVKPSYKSCADCMYPTASGAPEASRERCEDPNAPAICTQPAFLPHITSSPVAHLASRSRVPEKPASGPTEPPPFLPPAGSRRADTSGPGAGAALEPPASLLEPSRETPKVLPKSLLLKNSHCDKNPPSTEVVIKEESSPKKDMKPAKDLRLLFSNESEKPTTNSYLMQHQESIIQLQKAGLVRKHTKELERLKSVPADPAPPSRDGPASRLEASIPEESQDPAALHELGPLVMPSQAGSDEKSEAAPASLEGGSLKSPPPFFYRLDHTSSFSKDFLKTICYTPTSSSMSSNLTRSSSSDSIHSVRGKPGLVKQRTQEIETRLRLAGLTVSSPLKRSHSLAKLGSLTFSTEDLSSEADPSTVADSQDTTLSESSFLHEPQGTPRDPAATSKPSGKPAPENLKSPSWMSKS

Variants of: B1
Details: with actb_rabit ACTB
With W458A the “effect of a mutation on the interaction” value was “disrupting interaction”.
